The source of these data is patent publication US20050158807A1.

For this test, the target named is Fas receptor on cultured mouse thyroid follicular cells (mouse) (UniProt P25446). The experiment in a line: cell-based or functional assay.
Chain of UniProt P25446 (P25446 22-327): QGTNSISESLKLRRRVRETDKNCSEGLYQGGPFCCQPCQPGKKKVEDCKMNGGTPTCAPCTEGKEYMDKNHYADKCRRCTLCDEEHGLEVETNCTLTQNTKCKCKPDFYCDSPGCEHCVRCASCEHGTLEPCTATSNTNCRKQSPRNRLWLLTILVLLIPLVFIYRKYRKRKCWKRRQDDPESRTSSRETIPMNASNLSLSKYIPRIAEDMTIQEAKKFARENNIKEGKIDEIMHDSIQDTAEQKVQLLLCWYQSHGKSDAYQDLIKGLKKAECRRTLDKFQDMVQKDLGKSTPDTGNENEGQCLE

In the case of “clone Jo2 anti-Fas antibody (Pharmingen)”, the percentage of proliferation increase of anti-Fas versus control cultures ([3H] thymidine), 48 h was 37%; the percentage of proliferation increase of anti-Fas versus control cultures ([3H] thymidine), 72 h was 49%; the percentage of proliferation increase of anti-Fas versus control cultures ([3H] thymidine), 96 h is 61%.
